# Laboratory results from patent publication JP2008194054A (dated 2008).
# T1: 精製連鎖球菌抗原(SA)I/II (Streptococcus mutans, UniProt P23504 39-1532)
# T1 construct: Purified antigen; also called 固定化精製連鎖球菌抗原
# T1 sequence (looked up): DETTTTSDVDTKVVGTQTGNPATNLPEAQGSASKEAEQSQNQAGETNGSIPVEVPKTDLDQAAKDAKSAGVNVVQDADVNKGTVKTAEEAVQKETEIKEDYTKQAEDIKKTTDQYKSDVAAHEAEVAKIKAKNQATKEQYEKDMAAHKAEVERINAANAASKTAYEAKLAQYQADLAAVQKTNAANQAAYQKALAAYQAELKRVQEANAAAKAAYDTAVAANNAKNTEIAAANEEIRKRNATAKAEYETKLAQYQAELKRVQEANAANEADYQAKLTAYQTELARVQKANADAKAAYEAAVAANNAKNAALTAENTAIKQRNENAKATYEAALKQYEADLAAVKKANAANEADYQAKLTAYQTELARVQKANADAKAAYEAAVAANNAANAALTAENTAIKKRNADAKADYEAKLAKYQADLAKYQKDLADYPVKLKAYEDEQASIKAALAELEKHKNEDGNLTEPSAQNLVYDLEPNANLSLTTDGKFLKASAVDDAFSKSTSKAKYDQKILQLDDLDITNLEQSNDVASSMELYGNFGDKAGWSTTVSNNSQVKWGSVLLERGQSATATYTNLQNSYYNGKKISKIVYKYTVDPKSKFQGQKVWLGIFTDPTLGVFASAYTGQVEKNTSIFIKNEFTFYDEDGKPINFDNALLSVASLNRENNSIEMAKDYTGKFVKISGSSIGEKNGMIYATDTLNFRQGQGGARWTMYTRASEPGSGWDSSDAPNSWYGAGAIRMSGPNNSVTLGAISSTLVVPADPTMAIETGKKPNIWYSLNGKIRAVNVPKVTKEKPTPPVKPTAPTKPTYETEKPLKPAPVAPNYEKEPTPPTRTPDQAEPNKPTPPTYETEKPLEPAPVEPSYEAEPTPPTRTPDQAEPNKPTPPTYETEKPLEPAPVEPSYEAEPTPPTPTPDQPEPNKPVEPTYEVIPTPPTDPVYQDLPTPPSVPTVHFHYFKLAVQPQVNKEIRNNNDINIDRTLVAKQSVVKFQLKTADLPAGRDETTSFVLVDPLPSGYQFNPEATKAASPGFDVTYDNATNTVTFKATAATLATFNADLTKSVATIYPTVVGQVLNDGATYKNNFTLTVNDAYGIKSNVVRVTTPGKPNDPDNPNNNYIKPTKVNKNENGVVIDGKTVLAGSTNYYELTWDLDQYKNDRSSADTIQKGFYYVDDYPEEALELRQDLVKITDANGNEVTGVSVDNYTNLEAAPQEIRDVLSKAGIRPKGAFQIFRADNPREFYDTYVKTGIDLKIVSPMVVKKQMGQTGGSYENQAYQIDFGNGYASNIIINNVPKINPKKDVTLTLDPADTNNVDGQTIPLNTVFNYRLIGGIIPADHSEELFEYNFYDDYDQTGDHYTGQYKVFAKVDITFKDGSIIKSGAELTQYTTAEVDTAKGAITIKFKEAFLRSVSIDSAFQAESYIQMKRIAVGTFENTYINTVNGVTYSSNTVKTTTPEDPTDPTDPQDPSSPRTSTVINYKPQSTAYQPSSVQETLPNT
# How the values were obtained:
# [1] = target: T1, 精製連鎖球菌抗原(SA)I/II; test: competition ELISA on purified SA I/II; competitor 125I-labelled mouse Guy's13
# [2] = target: T1, 精製連鎖球菌抗原(SA)I/II; test: ELISA on SA I/II, plant extracts
Molecule,標識マウスGuy's13の阻害% [1] [%],binding result [2]
植物G1/A (Guy's13可変領域−(IgG1 CH1)−(IgA CH2)−(IgA CH3) ハイブリッド重鎖とカッパ鎖) (from UniProt P01878 101-344) (antibody),< 85,–
植物G13 (本来のガンマ重鎖のGuy's13IgG、タバコで発現) (antibody),< 85,–
植物G2/A (var−γ1−γ2−α2−α3ドメインを含むIgG/IgAハイブリッド重鎖のGuy's13) (from UniProt P01878 101-344) (antibody),< 85,–
"マウスJ鎖 (J鎖のみを発現する植物) (other, mouse, UniProt P01592 22-159, looked up, Tested as extract of tobacco plants that express J chain only, or by co-expression) GDDEATILADNKCMCTRVTSRIIPSTEDPNEDIVERNIRIVVPLNNRENISDPTSPLRRNFVYHLSDVCKKCDPVEVELEDQVVTATQSNICNEDDGVPETCYMYDRNKCYTTMVPLRYHGETKMVQAALTPDSCYPD",–,no binding
